experiment: soluble on expression in E. coli; label from the status in PepcDB or PDB records

Soluble on expression in E. coli, not soluble:
MHEPMKTLKNIHAEIRICQKFPKSTVQKRFSEFEELIKAASKNARNWKPISSVELFQGDSSLNELFEKLVIGTCELRDGELFENVNDLTINPSNIHVYKLHKDGPLSQNIGDDDGDESIIGSQLWQLPCVEFDSIWENLIYDSNLKNEVMSYVAALARLSEKHVNTKIINVNRLILLTGPPGTGKTSLCKGLAQHLSIRMNDKYSKSVMLEINSHSLFSKWFSESGKLVQKMFDQIDELAEDEKCMVFVLIDEVESLGMCRESSSSRSEPSDAIRAVNALLTQIDRIRRRDNVLILCTSNLESTLDKALVDRADIVKNVGQPSDFARYSMLKSSIMELARIGVVIDNEVHTDYWPQDICDTKAPRNEFTEILFKIAQEARGLSGRAISMLPTLVYSKSPEETITLPNCMNLFLEAVKERLSRNN
MHERHRFWQRALRLLSLGVPREASSALFGHDHSLQQETWLRSLQKEKQHIIDWHDRLTDIPFVIIDMETTGFSPEQGDEILAMAAAKTVGGVVTDAYMTLVKPEKPIPEHISALTGIEAKDVVFAPPLAEALRTFVPFIAAGVLIGYHIGHDLAFLRHALWRHYRQKWSGRFVDLQPMMTLIGHSCPTFDDALACYGICCPRRHTADGDVEAMAKLWAILLDEFRQRGIDTLHDLYAALSRC
MHIEFRHLRTIKAIHDCGGLARAADQLNITQSALSHQIKGLEDQAGVELFVRRSKPMKLSAAGMRLLRLAEQILPQVEAMQAEFSSLRDGRSGRMHIAIECHACFEWLFPVLEAFRKNWPDVDVDIRPGLAFDALPALQKEEVDLVVSSDPEEIAGVEFVELFDYNAVFVAASTHPLAAKPWVEAEDFRGETLITYPVERTRLDVFSQLLIPARVEPAQVRQVELTAVILLLVASNRGVSVLPDWVVREVKYSSDYVTRPLTETGITRRLYAAVRSEDLEKPFVQELVTLARSEARKLQSR
MHKSIAVFEVEGGNDKQFNGHRKDTLPIVDAIKEKGWHAEVVFYRPEWSEGLFEYVSQNFDGYISRVNPGNIPGGEKGYFDLLTKLSEAGLVGMSTPAEMMAYGAKDALVKLNDTDLVPSDTAAYYDVETFHNTFPTSLSYGERVLKQNRGSTGSGIWRVQLEDKELAASVAPGTALPLNTKLRCTEAVDNHTEIRELGEFMDFCDQYIVGDNGMLVDMRFMPRIVEGEIRILMVGPHPVFVVHKKPAAGGDNFSATLFSGAKYTYDKPEAWQELVDMFAAARPVIAEKLGGDNIPLIWTADFMLADGENGEDTYVLGEINCSCVGFTSELDMGIQELVAQEAVERVEKKHA
MHLDRQSLEKAKHLIQSGLIDTIEVGTIKGLQEIHRFLFEGLYEFAGKIRDKNIAKGNFRFANCLYLDLILPRIESMPQNNFNQIVEKYVEMNIAHPFLEGNGRATRIWLDLLLKKELKKIVLWDRIDKAAYLSAMERSPVNDLEIKTLLKKHLSSNTNDPLTLIKGITQSYYYEGLLEHHHHHH
MHLLPELASHHAVSIPELLVSRDERQARQHVWLKRHPVPLVSFTVVAPGPIKDSEVTRRIFNHGVTALRALAAKQGWQIQEQAALVSASGPEGMLSIAAPARDLKLATIELEHSHPLGRLWDIDVLTPEGEILSRRDYSLPPRRCLLCEQSAAVCARGKTHQLTDLLNRMEALLNDVDACNVN
MHPRKIEIVTAAVTCFLERGYHQTGIRDIARQAGVSLGNLYNHFAGKEAVLAFIAELEGRELAAFVDMLSDPEEPYAALERFIWAYAAYAARPENALLGLELMAEALRNPTISQVFDGNRHQLVAALMGCLERGVSTGRFRHLDDTRALALMILDTLEGQGLRQLDRKTPDPDAVRTLCAVLTTGLLARDQSPPPVPCNTPCSSA
MHRSFPRLVRSQGNLLKGMFGKSGEKEAVKQLTLEEQESLRKTLPSIRARESTQVTASADSVTEFDDDLLTMSRIDTDAIRARGFLKYTQNYVPGVDVKNQVLEAASSCLRSAGVKSENVDQYKFVEGDNSVKFELLNRLGKSIEHWPTNGKLLHLETVADVVEFYQTPVKNVTKYTEMARDENKPKNVSIMEHAARFHPEDTHMYHGGITAFPGSGGEVLSLRQKRLLRQFQPKKEWFDYDDQTFDYTRPDKNMPWDPEVANQMDKYTDKRYNLKTKQFTRIRQ
MHSEKSVMMEPMTNPKNDPRNPDLLLDFEEVEFTRGGKTLVGPITWQVELDERWVILGPNGAGKTTLIRMAAAEEFPSKGALWIMGERIGKTDMRDLRAMIGVSSSALGNRIPTNEKVLDLVISAGYAILGRWREEYDKWDHDRAIEILEQVGAYHLADQTWGTLSEGERKRVLVARALMTNPELLLLDEPTAGMDLGGREDLVGYLAQLAMDPDAPAMVMITHHVEEIPAGFTHALLLDEGEVVSQGLIDEVLTSANLTKAFHQPIKVDKIDGRYFARRQRTARSHRR
MHSHLIPGIDDGSKSMEESLSLIQEFKKLGYKKIITTPHIMGDFFKNSKETIFPGLIELRASIAEAGIDIEIEAAAEYYLDEWFIEKLERNEPLLKLGGNYVLFETSYMNRPTQLHQAIFLMRSLGYIPVLAHPERYTYLYEDFKLFKEIYEMDVLFQINLNSLAGYYSKTAKLYAEKLIDNNMVDFVGTDCHGQRHIDVLAKVKVSNYYQKLQKLSILNNTLIS
MHSLFTLNLDLERAGKVICVQSLPFDTARETLLLLSPVGTQCCYMKNAALFLISHFNLIILESDTWLAYANEAGVNPEEGVADFIRQFNAALPEPVRVDALVGYCSSAPLALLAANQGACRTLLLLNGAYFLKDDGVIKSQYERDVERMMQSIPQGNCAQVYEAVSLLHTKSAYTPSDYRYQQVRPLRELSAFRQYLTFLNSLASLESVRIAQTVKTPTLVWCGSQDRYTDTASSRYIAQLLPHSELVEDPDGQHHDFVDGHERLYLTMTHFLTRHKQRAIQ

Soluble on expression in E. coli, soluble:
MGWCITVVHNTKWKAPPDTHIKCNYDAGFNVQNLDSTARWIIRNHDGIAQHWGSLQLDNTSTPLEAETKALLAALQQTWIRGYLRVIMEGDCETLTNLVSGSSSHNHLANLLDDIRIWAKKFSNVQFSFVRRGGNKVAHELAKLGCNSTCFYSDSCTLPIWLHQHYCNDFG
MGYNTIPAGKDLPNDIYVAIEIPANASPIKYEIDKDMDALLVDRFMATPMFYPANYGYINNTLADDGDALDVLVITPYPVAPGSVIRARPVGVLKMSDEAGGDEKLLAVPHEKLTQLYNDIHDIDDVPQLLKDQIVHFFEHYKDLEKGKWVKVEGWENADAARAAIVKSAAAYKG
MHDAATSMPPQAPSTWADYLAGYRWRGQGEGCSAATVHRLEAARRPTLFVKQEVLSAHAELPAEIARLRWLHGAGIDCPQVLNETQSDGRQWLLMSAMPGDTLSALAQRDELEPERLVRLVAAALRRLHDLDPAACPFDHRLERRLDTVRQRVEAGLVDEADFDDDHRGRSATELYRLLLDRRPAVEDLVVAHGDACLPNLLAEGRRFSGFIDCGRLGVADRHQDLALAARDIEAELGAAWAEAFLVEYGGDIDGERLAYFRLLDEFF
MHGKDPFSDFREFINTMESRVQELGKAYGVEHLAGPQGFAVRYLFENQDKEIFIKDIEKKLSISKSVASNLVKRMEKNGFVELVTSDKDKRYKYVHLTDLGKKKAQDVGHFREAIHGQLLDGISKEDAETAFRVFHQIRKNLEKNKELEHHHHHH
MHHHHHHSSGRENLYFQGSVFGVPLTVNVQRTGQPLPQSIQQAMRYLRNHCLDQVGLFRKSGVKSRIQALRQMNEGAIDCVNYEGQSAYDVADMLKQYFRDLPEPLMTNKLSETFLQIYQYVPKDQRLQAIKAAIMLLPDENREVLQTLLYFLSDVTAAVKENQMTPTNLAVCLAPSLFHLNTLKRENSSPRVMQRKQSLGKPDQKDLNENLAATQGLAHMIAECKKL
MHHHHHHSSGVDLGTENLYFQSMENFNNFYILTSKELGRGKFAVVRQCISKSTGQEYAAKFLKKRRRGQDCRAEILHEIAVLELAKSCPRVINLHEVYENTSEIILILEYAAGGEIFSLCLPELAEMVSENDVIRLIKQILEGVYYLHQNNIVHLDLKPQNILLSSIYPLGDIKIVDFGMSRKIGHACELREIMGTPEYLAPEILNYDPITTATDMWNIGIIAYMLLTHTSPFVGEDNQETYLNISQVNVDYSEETFSSVSQLATDFIQSLLVKNPEKRPTAEICLSHSWLQQWDFENLFHPEETSSSSQTQDHSVRSSEDKTSKSS
MHHHHHHSSGVDLGTENLYFQSMRTGYRVFSANSTAACTELAKRITERLGAELGKSVVYQETNGETRVEIKESVRGQDIFIIQTIPRDVNTAVMELLIMAYALKTACARNIIGVIPYFPYSKQSKMRKRGSIVCKLLASMLAKAGLTHIITMDLHQKEIQGFFSFPVDNLRASPFLLQYIQEEIPNYRNAVIVAKSPDAAKRAQSYAERLRLGLAVIHGEAQCTELDMDDGRHSPPMVKNATVHPGLELPLMMAKEKPPITVVGDVGGRIAIIVDDIIDDVESFVAAAEILKERGAYKIYVMATHGILSAEAPRLIEESSVDEVVVTNTVPHEVQKLQCPKIKTVDISLILSEAIRRIHNGESMAYLFRN
MHHHHHHSSGVDLGTENLYFQSMSRVLQAEELHEKALDPFLLQAEFFEIPMNFVDPKEYDIPGLVRKNRYKTILPNPHSRVCLTSPDPDDPLSSYINANYIRGYGGEEKVYIATQGPIVSTVADFWRMVWQEHTPIIVMITNIEEMNEKCTEYWPEEQVAYDGVEITVQKVIHTEDYRLRLISLKSGTEERGLKHYWFTSWPDQKTPDRAPPLLHLVREVEEAAQQEGPHCAPIIVHCSAGIGRTGCFIATSICCQQLRQEGVVDILKTTCQLRQDRGGMIQTCEQYQFVHHVMSLYEKQLSHQS
MHHHHHHSSGVDLGTENLYFQSMTTSLEALPTGTVLTDKSGRQWKLKSFQTRDNQGILYEAAPTSTLTCDSGPQKQKFSLKLDAKDGRLFNEQNFFQRAAKPLQVNKWKKLYSTPLLAIPTCMGFGVHQDKYRFLVLPSLGRSLQSALDVSPKHVLSERSVLQVACRLLDALEFLHENEYVHGNVTAENIFVDPEDQSQVTLAGYGFAFRYCPSGKHVAYVEGSRSPHEGDLEFISMDLHKGCGPSRRSDLQSLGYCMLKWLYGFLPWTNCLPNTEDIMKQKQKFVDKPGPFVGPCGHWIRPSETLQKYLKVVMALTYEEKPPYAMLRNNLEALLQDLRVSPYDPIGLPMVP
MHHHHHHSSRENLYFQGTLPLWIGKPGDKPPPLCGAIPASGDYVARPGDKVAARVKAVDGDEQWILAEVVSYSHATNKYEVDDIDEEGKERHTLSRRRVIPLPQWKANPETDPEALFQKEQLVLALYPQTTCFYRALIHAPPQRPQDDYSVLFEDTSYADGYSPPLNVAQRYVVACKEPK
MHKEKHCAVVIDCWMEKIGEVNFENKPSKFPAFVEEIRKICGTKDFVFGLEDTRGFGRNLASYLTGRKFEVKHVNPVYTSAIRLSNPIIYKDDSYDAYCVARVLRDMVDTLQDAKHEDIYWAIRQLVKRREIIVKYNVMNKNQLHSQLSYGYPSYKKFFSQIDGKSALCFWENYPSPEHIWCTTPEQIYETIKAVHQAFKIERVHAIIDMIKKDGNTQKGYQEERDTIVRNIVKDIKNNQELLKDIEKQLRKLLPQTGYKLQTMPGIDLITEAKIVSEIGDINRFPNSDKLARFMGLAPVHFSSAGKGKEERCRNGNRELNAIFHFLAIQMVAVSPSGKPRHPVFREYFEQKVKEGKNKPQALICISRTLVRLIYGMMKTKTEYRPYEKKEEEGNN

Reference: the DeepSol protein solubility set
